Literature values as cited in PMC7699679.

Legend:
[1] = target: CCR2 (Homo sapiens) (UniProt P41597)
[2] = target: CXCR1 (Homo sapiens) (UniProt P25024)
[3] = target: CXCR2 (Homo sapiens) (UniProt P25025)
[4] = target: C5aR (Homo sapiens) (UniProt P21730)
Chain of UniProt P21730 (P21730 whole entry): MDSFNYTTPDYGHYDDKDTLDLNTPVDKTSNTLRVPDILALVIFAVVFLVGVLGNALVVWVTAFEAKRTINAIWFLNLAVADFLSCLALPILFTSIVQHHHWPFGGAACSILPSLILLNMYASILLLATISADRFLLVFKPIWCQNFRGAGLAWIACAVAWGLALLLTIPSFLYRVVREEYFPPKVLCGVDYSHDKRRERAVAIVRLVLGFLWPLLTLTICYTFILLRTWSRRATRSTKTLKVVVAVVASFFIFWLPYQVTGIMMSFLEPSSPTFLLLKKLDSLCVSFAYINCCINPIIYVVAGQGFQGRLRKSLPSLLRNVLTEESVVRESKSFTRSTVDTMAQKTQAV

Chain of UniProt P41597 (P41597 whole entry): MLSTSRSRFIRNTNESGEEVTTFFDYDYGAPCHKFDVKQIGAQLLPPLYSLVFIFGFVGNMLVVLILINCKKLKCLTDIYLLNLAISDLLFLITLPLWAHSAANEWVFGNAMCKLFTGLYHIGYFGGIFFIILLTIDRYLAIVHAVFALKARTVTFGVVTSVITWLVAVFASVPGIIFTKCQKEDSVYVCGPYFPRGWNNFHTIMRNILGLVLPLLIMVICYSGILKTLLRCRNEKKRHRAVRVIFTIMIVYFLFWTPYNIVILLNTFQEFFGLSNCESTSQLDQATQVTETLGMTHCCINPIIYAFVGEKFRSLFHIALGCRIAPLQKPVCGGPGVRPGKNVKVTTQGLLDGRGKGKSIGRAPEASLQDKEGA
Chain of UniProt P25025 (P25025 whole entry): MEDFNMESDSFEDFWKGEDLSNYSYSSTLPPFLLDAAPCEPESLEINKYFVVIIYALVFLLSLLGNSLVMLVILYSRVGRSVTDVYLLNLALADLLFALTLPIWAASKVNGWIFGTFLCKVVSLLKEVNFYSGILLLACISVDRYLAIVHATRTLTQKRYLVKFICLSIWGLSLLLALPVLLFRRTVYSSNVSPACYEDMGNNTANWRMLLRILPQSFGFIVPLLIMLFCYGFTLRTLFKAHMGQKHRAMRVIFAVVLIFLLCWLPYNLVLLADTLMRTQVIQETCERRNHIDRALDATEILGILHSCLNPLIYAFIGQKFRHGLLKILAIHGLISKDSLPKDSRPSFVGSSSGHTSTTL
Chain of UniProt P25024 (P25024 whole entry): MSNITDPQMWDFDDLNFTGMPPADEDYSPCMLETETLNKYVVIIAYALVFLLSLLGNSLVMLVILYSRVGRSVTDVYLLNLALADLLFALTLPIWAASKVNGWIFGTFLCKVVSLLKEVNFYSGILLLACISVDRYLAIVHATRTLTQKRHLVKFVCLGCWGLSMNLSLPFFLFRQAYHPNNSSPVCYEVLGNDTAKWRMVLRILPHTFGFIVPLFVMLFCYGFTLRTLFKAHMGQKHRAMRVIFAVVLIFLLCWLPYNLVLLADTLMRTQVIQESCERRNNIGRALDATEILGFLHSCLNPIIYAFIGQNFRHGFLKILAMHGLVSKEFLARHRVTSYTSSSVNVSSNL

Q: For HlgA (from UniProt Q5HDD6), which Kd [1] is on record?
A: 3.51 nM

Q: What about the Kd [2] of the same substance?
A: 5.69 nM

Q: What about the Kd [3] of the same substance?
A: 27.2 nM

Q: With HlgC (from UniProt Q07227) as the substance, how does the Kd [4] read?
A: 5.64 nM
